In patent US20180214548A1:

Molecular target: NC-Fc
Experiment: ELISA, coated protein 1 ug/mL; antibody concentration not stated

| OD450 nm | Binder |
| --- | --- |
| 0.268 | chimeric anti-PD-1 antibody 76G5B3 (antibody, V domains shown) VH: QVQLVESGGGVVQPGRSLRLSCAASGFTFSDYGFHWVRQAPGKGLEWVAVIWYDGSNEYYTDSVKGRFTISRDNSKNTLYLQMNSLRAEDTAMYFCVVNPFDYWGQGTLVTVSS VL: DIQMTQSPSSLSAFVGDRVTITCRASQGINHYLAWYQQKPGKAPNLLILAASTLLSGVPSRFGGRGSGTDFTLIISSLQPEDVATYYCQKYDSAPYTFGQGTKLEIK |
| 0.161 | chimeric anti-PD-1 antibody 21G8F11 (antibody, V domains shown) VH: EVQLLESGGGLAQPGGSLRLSCAASGFSFNTYLMHWVRQAPGKGLEWVSAISGGGGNTYYADSVKGRFTISRDNSKNTLYLQMNSLRAEDTAVYYCAKENRIPVAPFDYWGQGTLVTVSS VL: DIQMTQSPSTLSASVGDRVTITCRASQSISTWLAWYQQKPGKAPKLLIYKASSLESGVPSRFSGSGSGTEFTLTISSLQPDDLATYYCQQYNSFSWTFGQGTKVEIK |
